The values that follow come from US20240075157A1.

The target of assay [1] is hFcγR2B (human) (UniProt P31994). As to the kind of experiment: BLI, Hu Fc2B. (BLI is a label-free optical method that tracks binding on a fibre tip over time.)
The next assay deals with hFcγR3A 176V (human) (UniProt P08637). The assay can be described thus: BLI, Hu Fc3A 176V.
The target in assay [2] is hFcγR2A 167R (human) (UniProt P12318). The assay can be described thus: BLI, Hu Fc2A 167R.
In assay [3] the target is hFcγR2A 167H (human) (UniProt P12318). As to the kind of experiment: BLI, Hu Fc2A 167H.
Chain of hFcγR2A 167H (human) (P12318 36-218): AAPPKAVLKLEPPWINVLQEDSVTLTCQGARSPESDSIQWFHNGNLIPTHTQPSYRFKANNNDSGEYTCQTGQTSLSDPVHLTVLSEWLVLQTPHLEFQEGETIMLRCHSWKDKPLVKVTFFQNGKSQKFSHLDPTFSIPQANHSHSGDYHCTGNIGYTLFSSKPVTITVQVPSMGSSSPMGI
The next assay deals with Hu Fc3A 176F. The assay can be described thus: BLI, Hu Fc3A 176F.
Chain of Hu Fc3A 176F (chain, as listed by the source limits assumed): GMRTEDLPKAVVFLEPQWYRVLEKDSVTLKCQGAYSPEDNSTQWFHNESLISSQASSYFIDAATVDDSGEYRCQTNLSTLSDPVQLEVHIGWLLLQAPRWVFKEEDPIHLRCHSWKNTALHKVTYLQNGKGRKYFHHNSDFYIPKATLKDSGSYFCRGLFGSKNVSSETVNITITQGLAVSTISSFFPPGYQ
For assay [4], the target named is human FcγR1 (hFcγR1) (human) (UniProt P12314). As to the kind of experiment: BLI, Hu Fc1.
Chain of human FcγR1 (hFcγR1) (human) (P12314 16-288 limits assumed): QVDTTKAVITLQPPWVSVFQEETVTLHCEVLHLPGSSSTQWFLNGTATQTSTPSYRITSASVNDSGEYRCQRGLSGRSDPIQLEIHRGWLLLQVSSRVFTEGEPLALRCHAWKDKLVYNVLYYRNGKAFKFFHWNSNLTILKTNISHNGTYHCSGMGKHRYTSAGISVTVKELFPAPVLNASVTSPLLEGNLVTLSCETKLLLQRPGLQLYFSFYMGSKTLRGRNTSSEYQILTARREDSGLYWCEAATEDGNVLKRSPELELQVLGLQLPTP
Assay [5] deals with hFcγR2B (human) (UniProt P31994). As to the kind of experiment: BLI, Bio-hFcR2B.
Assay [6] has as its target hFcγR2A 167H (human) (UniProt P12318). The assay can be described thus: BLI, Bio hFcR2A 167H.
Assay [7] deals with hFcγR2A 167R (human) (UniProt P12318). As to the kind of experiment: BLI, Bio-hFcR2A 167R.
Assay [8] deals with human FcγR1 (hFcγR1) (human) (UniProt P12314). The assay can be described thus: BLI, Bio-hFcR1.
Assay [9] addresses cynomolgus FcγRI (cyno FcγR1) (cynomolgus). The assay can be described thus: BLI, His-cyno FcR1.
The target in assay [10] is human FcγR1 (hFcγR1) (human) (UniProt P12314). The assay can be described thus: BLI, His-hFcR1.
Assay [11] addresses hFcγR2A 167R (human) (UniProt P12318). As to the kind of experiment: BLI, FcR2A 167R, 600nM IgG.
Assay [12] deals with hFcγR2B (human) (UniProt P31994). As to the kind of experiment: BLI, FcR2B, 450nM IgG.
The target is the same in assay [13]. As to the kind of experiment: BLI, FcR2B, 600nM IgG.
Assay [14] concerns the target hFcγR3B (human) (UniProt O75015). The assay can be described thus: BLI, FcR3B, 450nM IgG.
Assay [15] has the same target. As to the kind of experiment: BLI, FcR3B, 600nM IgG.
The target of assay [16] is hFcγR2A 167H (human) (UniProt P12318). As to the kind of experiment: BLI, FcR2A 167H, 600nM IgG.
The target of assay [17] is hFcγR2A 167R (human) (UniProt P12318). As to the kind of experiment: BLI, FcR2A 167R, 450nM IgG.
The target in assay [18] is human FcγR1 (hFcγR1) (human) (UniProt P12314). As to the kind of experiment: BLI, FcR1, 25nM IgG.
Assay [19] shares this target. As to the kind of experiment: BLI, FcR1, 10nM IgG.
Assay [20] has the same target. The assay can be described thus: BLI, FcR1, 50nM IgG.
Assay [21] has as its target hFcγR2A 167H (human) (UniProt P12318). As to the kind of experiment: BLI, FcR2A 167H, 450nM IgG.

Chain of cynomolgus FcγRI (cyno FcγR1) (cynomolgus) (A0A2K5 entry or part of it limits assumed): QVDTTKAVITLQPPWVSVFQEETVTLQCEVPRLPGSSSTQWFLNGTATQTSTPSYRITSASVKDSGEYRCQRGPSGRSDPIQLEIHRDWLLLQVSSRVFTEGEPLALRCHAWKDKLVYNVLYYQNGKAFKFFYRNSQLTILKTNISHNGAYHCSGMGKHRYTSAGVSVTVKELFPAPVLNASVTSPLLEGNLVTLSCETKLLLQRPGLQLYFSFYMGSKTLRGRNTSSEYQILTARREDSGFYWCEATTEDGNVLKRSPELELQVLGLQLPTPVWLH
Chain of hFcγR2B (human) (P31994 46-217): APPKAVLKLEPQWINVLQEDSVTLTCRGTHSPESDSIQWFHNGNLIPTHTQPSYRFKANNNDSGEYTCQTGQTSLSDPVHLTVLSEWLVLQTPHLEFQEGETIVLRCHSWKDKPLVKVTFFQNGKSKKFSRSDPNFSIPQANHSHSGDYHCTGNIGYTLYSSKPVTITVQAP
Chain of hFcγR2A 167R (human) (P12318 36-218 H167R): as the sequence (P12318 36-218) above, with H132R counted along it
Chain of hFcγR3B (human) (O75015 17-200 limits assumed): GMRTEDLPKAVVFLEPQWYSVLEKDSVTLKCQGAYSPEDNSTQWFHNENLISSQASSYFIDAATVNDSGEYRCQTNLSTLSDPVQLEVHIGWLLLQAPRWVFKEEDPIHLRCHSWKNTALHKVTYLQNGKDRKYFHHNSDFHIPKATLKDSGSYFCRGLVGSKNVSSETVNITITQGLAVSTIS
Chain of hFcγR3A 176V (human) (P08637 17-208 F176V limits assumed): as the sequence (chain, as listed by the source limits assumed) above, with F160V counted along it

Ab5 (anti-CD45 antibody) LALA variant: the normalized binding response with hFcγR2B (human) [1] was 3 % of WT; with hFcγR3A 176V (human), 34 % of WT; in the assay with hFcγR2A 167R (human) [2] it was 2 % of WT; in the assay with hFcγR2A 167H (human) [3], 4 % of WT; with Hu Fc3A 176F, 19 % of WT.

Regarding “Ab5 (anti-CD45 antibody) D265C.N297A.H435A variant”, the normalized binding response in the assay with hFcγR2B (human) [1] was 2 % of WT.

As to Ab5 D265C.H435A (antibody), the normalized binding response with hFcγR2B (human) [1] is 3 % of WT; in [4] it was 33 % of WT.

As to Ab5 LALA.P331G (antibody), the normalized binding response in the assay with hFcγR2B (human) [1] is 8 % of WT; with hFcγR2A 167R (human) [2] it was 1 % of WT.

For the substance YTH24.5 (anti-CD45 rIgG2b) (antibody), the normalized binding response is 120 % of WT in the assay with hFcγR2B (human) [1]; 56 % of WT in the assay with hFcγR2A 167R (human) [2]; 150 % of WT in the assay with hFcγR2A 167H (human) [3]; 62 % of WT with Hu Fc3A 176F; 121 % of WT in assay [4].

For the substance Ab5 EPLVLAdelG (antibody), the normalized binding response is 10 % of WT with hFcγR2B (human) [1]; 16 % of WT with hFcγR3A 176V (human); 15 % of WT with hFcγR2A 167R (human) [2]; 66 % of WT with hFcγR2A 167H (human) [3]; 9 % of WT in the assay with Hu Fc3A 176F; 1 % of WT in [4].

Take Ab5 CH2 deleted (antibody): the normalized binding response with hFcγR2B (human) [1] is 1 % of WT.

As to Ab5 D265A.H435A (antibody), the values for the normalized binding response (with hFcγR2B (human) [1]; with hFcγR2A 167H (human) [3]; in [4]) were 1 % of WT, 3 % of WT and 35 % of WT, respectively.

With Ab5 LALA.P329G (antibody), the normalized binding response with hFcγR2A 167R (human) [2] is 2 % of WT.

With Ab5 D265C.LALA.P329G.H435A (antibody), the normalized binding response was 1 % of WT with Hu Fc3A 176F and 4 % of WT in assay [4].

For Isotype WT (antibody), the Normalized Response was 95 % of WT with hFcγR2B (human) [5]; 90 % of WT with hFcγR2A 167H (human) [6]; 102 % of WT with hFcγR2A 167R (human) [7]; 91 % of WT in assay [8]; 82 % of WT in [9]; 85 % of WT in assay [10].

For Ab5 (anti-CD45 antibody) D265A variant, the normalized binding response with hFcγR2B (human) [1] was 2 % of WT; with hFcγR2A 167H (human) [3] it was 2 % of WT; in [4] it was 40 % of WT.

As to “rIgG2a (rat IgG2a isotype control) (antibody)”, the normalized binding response in the assay with hFcγR2B (human) [1] is 8 % of WT; in the assay with hFcγR2A 167R (human) [2], 74 % of WT; in the assay with hFcγR2A 167H (human) [3] it was 3 % of WT; in the assay with Hu Fc3A 176F, 1 % of WT.

As to Ab2 D265C N297Q (antibody), the Normalized Response in assay [9] was 7 % of WT.

Consider “naked (un-conjugated) antibody (i.e., the isotype control) of FIGS. 1D and 1E”, for which the % Binding vs Wild Type hIgG1 in the assay with hFcγR2A 167R (human) [11], in the assay with hFcγR2B (human) [12], with hFcγR2B (human) [13], with hFcγR3B (human) [14], with hFcγR3B (human) [15] and with hFcγR2A 167H (human) [16] was 100% throughout. For the same substance, the % Binding vs Wild Type hIgG1 (with hFcγR2A 167R (human) [17]; in [18]; in assay [19]; in [20]; with hFcγR2A 167H (human) [21]) was 100% in each case.

Consider Ab2 D265C N297Q H435A (antibody), for which, in [9], the Normalized Response was 7 % of WT.
